# Data as given in IntAct's records for PubMed 21070972.
# B1: tRNA endonuclease ANKZF1 (Mus musculus), Q80UU1 (parent)
# chain: MAKPAGDAAVGSRSGELFLPSVSSSATSPAPSAAPAPASVSLLSLNGEAPLIRGLSLVSQAPGEALAWAPRTSCPGENTSSGGKVSPYSLEISEKLFCSACDQIFQNHQEQREHYKLDWHRFNLKQRLKNKPLLSASDFEQQSSTGDLSSISGSDDTDSSSEEDLLPLDEGRAESEKPNRPPGFYPHRVLFKNAQGQFLYAYRCVLGPHQIPPEKAELLLQNLQNGGPRYYVVLMAAAGHFAGAIFQGREVVAHKTFHRYTVRAKRGTAQGLQDAHGRASRSAGANLRRYNEAMLYKDVRNLLAGPIWSKALGEAETVLFRAPRSGRSLFFGGQGAPLQRDDPRLWDIPLTTRRPTFGELQRVLHKLTTLQVYDEDPREMVRFHSPETHWKPVREERKKDTEKEKTKVPSDANKPLGQDEEPLKQGSESQEEDGSEVELELVELTLGTLDLREFEVLPKRRRRRKKKERSQEQQCGAHGPLPQQPQDEPFSQPTQEVETPLDTLVYEAKAPGQPELWDTLLAACRAGEVEVLKLQLATGLVDPGVKSLLNAPLGSGGFTLLHAAAAAGRGLVVRLLLEAGADPTVQDSRARPPYTVAADKSTRNEFRRFMEKNLDAYDYNKARVPGPLTQEMEARQATRKKEQKAARRQREQQQRKQREQEEQEQEEQRRFAALSDREKRALAAERRLAAQLGAPSPPVPDSAVASAGRCWSCGVSLQGLIPFHYLDFSFCSTRCLRDHRSQAGRPSS
# B2: Cell division control protein 48 (Saccharomyces cerevisiae), P25694 (parent)
# chain: MGEEHKPLLDASGVDPREEDKTATAILRRKKKDNMLLVDDAINDDNSVIAINSNTMDKLELFRGDTVLVKGKKRKDTVLIVLIDDELEDGACRINRVVRNNLRIRLGDLVTIHPCPDIKYATRISVLPIADTIEGITGNLFDVFLKPYFVEAYRPVRKGDHFVVRGGMRQVEFKVVDVEPEEYAVVAQDTIIHWEGEPINREDEENNMNEVGYDDIGGCRKQMAQIREMVELPLRHPQLFKAIGIKPPRGVLMYGPPGTGKTLMARAVANETGAFFFLINGPEVMSKMAGESESNLRKAFEEAEKNAPAIIFIDEIDSIAPKRDKTNGEVERRVVSQLLTLMDGMKARSNVVVIAATNRPNSIDPALRRFGRFDREVDIGIPDATGRLEVLRIHTKNMKLADDVDLEALAAETHGYVGADIASLCSEAAMQQIREKMDLIDLDEDEIDAEVLDSLGVTMDNFRFALGNSNPSALRETVVESVNVTWDDVGGLDEIKEELKETVEYPVLHPDQYTKFGLSPSKGVLFYGPPGTGKTLLAKAVATEVSANFISVKGPELLSMWYGESESNIRDIFDKARAAAPTVVFLDELDSIAKARGGSLGDAGGASDRVVNQLLTEMDGMNAKKNVFVIGATNRPDQIDPAILRPGRLDQLIYVPLPDENARLSILNAQLRKTPLEPGLELTAIAKATQGFSGADLLYIVQRAAKYAIKDSIEAHRQHEAEKEVKVEGEDVEMTDEGAKAEQEPEVDPVPYITKEHFAEAMKTAKRSVSDAELRRYEAYSQQMKASRGQFSNFNFNDAPLGTTATDNANSNNSAPSGAGAAFGSNAEEDDDLYS
# partner: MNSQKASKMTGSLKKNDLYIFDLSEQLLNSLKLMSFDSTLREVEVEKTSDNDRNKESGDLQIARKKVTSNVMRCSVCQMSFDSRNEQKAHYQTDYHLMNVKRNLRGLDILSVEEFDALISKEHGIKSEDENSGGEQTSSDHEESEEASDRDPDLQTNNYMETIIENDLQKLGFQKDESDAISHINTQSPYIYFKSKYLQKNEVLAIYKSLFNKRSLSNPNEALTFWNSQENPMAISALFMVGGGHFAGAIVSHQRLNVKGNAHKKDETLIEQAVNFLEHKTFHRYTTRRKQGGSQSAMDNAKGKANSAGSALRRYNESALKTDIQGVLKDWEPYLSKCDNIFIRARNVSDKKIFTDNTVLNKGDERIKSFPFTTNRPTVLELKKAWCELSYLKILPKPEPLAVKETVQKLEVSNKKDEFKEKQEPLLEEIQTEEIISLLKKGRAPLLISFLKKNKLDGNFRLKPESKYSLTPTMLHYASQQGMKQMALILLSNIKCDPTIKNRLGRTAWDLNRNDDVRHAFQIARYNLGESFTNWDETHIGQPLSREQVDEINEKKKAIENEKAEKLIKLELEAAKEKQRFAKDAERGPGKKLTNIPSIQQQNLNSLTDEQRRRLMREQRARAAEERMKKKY
# Variants of: B1
# Conditions: with tera_mouse Vcp
row,Variant,effect of a mutation on the interaction
1,E685A;R686A;R687A,decreasing interaction strength

# Variants of: B2
# Conditions: with vms1_yeast VMS1, Q04311
row,Variant,effect of a mutation on the interaction
1,S565E,decreasing interaction strength
